Source: US20240059769A1 (BIOLOJIC DESIGN, published 2024)
Substitutions are numbered along the chain they refer to.

B1: BDG38.091 (antibody, V domains shown)
VH: QMQLVESGGGVVQPGRSLTLSCAASGFEFRTYGMHWVRQAPGKGLEWLGVIWYDGSNTHYADSVKGRFTITRDNSKNTLNLQMNSLRVEDTAVYYCVRAPQWYLTAEAFDLWGQGTMVTVSS
VL: SYILTQPPSVSVAPGETATITCGGNLIGSRLVHWYQQKPGQAPVLVIYDDSDRPSRIPERFSGSNIGNTATLTISDVEAGDEADYYCQVWDHYSNHYVFGGGTKLTVL
notes: IgG1
B2: BDG38.086 (antibody, V domains shown)
VH: B1 VH with T19R, L48V, V88A
VL: B1 VL with I3V, E16Q, T19R, S29A, I47V, A79E, H92Y, Y93S, H96T
B3: BDG38.120 (antibody, V domains shown)
VH: B1 VH with T19R, L48V, G49A, Y53D, V88A
VL: B1 VL with S29A, I66S, H92Y, Y93S, N95D, Y97M
B4: BDG38.107 (antibody, V domains shown)
VH: B1 VH with L48V, V88A
VL: B1 VL with E16Q, S29A, S75E, D76R, A79E, H92Y, Y93S, N95D, H96S
notes: IgG1
B5: BDG38.098 (antibody, V domains shown)
VH: B1 VH with L48V, G49A, Y53D, H59V
VL: B1 VL with I3V, E16Q, S29A, D76R, H92Y, Y93S, N95D, H96S, Y97M
notes: IgG1
B6: BDG38.109 (antibody, V domains shown)
VH: B1 VH with T19R, L48V, V88A
VL: B1 VL with E16Q, S29A, S75E, D76R, A79E, H92Y, Y93S, H96S
B7: BDG38.108 (antibody, V domains shown)
VH: B1 VH with T19R, L48V, V88A
VL: B1 VL with S29A, A79E, H92Y, H96S
B8: BDG38.111 (antibody, V domains shown)
VH: B1 VH with L48V, Y53D, N57A
VL: B1 VL with I3V, N25A, S29A, I47V, D76R, H92Y, S94A, H96S
B9: BDG38.093 (antibody, V domains shown)
VH: B1 VH with L48V, V88A
VL: SYVLTQPPSVSVAPGQTARITCGGNLIGARLVHWYQQKPGQAPVLVIYDDSDRPSRIPERFSGSNIGNTATLTIERVEEGDEADYYCQVWDYSADSYVFGGGTKLTVL
B10: BDG38.130 (antibody, V domains shown)
VH: B1 VH with E28A, L48V, G49A, Y53D
VL: B1 VL with S29A, S75E, D76R, H92Y, Y93S, H96S
B11: BDG38.133 (antibody, V domains shown)
VH: B1 VH with T19R, L48V, G49A, Y53D, V88A
VL: B1 VL with S29A, D76R, H92Y, Y93S, N95D, H96T
B12: BDG38.099 (antibody, V domains shown)
VH: B1 VH with T19R, L48V, V88A
VL: B9 VL with V3I, Q16E, R76D, A94S
B13: BDG38.104 (antibody, V domains shown)
VH: B1 VH with L48V, N57A, V88A
VL: B1 VL with S29A, S75E, A79E, H92Y, N95D, H96S
B14: BDG38.121 (antibody, V domains shown)
VH: B1 VH with T19R, L48V, V88A
VL: B1 VL with S29A, D76R, H92Y, Y93S, H96T
B15: BDG38.141 (antibody, V domains shown)
VH: B1 VH with T19R, L48V, G49A, Y53D, V88A
VL: B1 VL with N25A, A79E, H92Y, Y97M
B16: BDG38.123 (antibody, V domains shown)
VH: B1 VH with T19R, L48V, G49A, Y53D, V88A
VL: B1 VL with S29A, H92Y, Y93S, N95D, H96T
B17: BDG38.102 (antibody, V domains shown)
VH: B1 VH with T19R, L48V, V88A
VL: B1 VL with I3V, S29A, I47V, S75E, H92Y, Y93S, H96T
B18: BDG38.089 (antibody, V domains shown)
VH: B1 VH with T19R, L48V, N57A
VL: B1 VL with S29A, D76R, A79E, Y93S
B19: BDG38.101 (antibody, V domains shown)
VH: B1 VH with T19R, L48V, N57A
VL: B1 VL with S29A, D76R, A79E, H92Y, Y93S, H96T
B20: BDG38.142 (antibody, V domains shown)
VH: B1 VH with L48V, G49A, Y53D, V88A
VL: B9 VL with V3I, R19T, R30K, I47V, S93Y, A94S, D95H, S96T, Y97M
B21: BDG38.097 (antibody, V domains shown)
VH: B1 VH with T19R, N57A, V88A
VL: B1 VL with S29A, S75E, D76R, A79E, H92Y, N95D
B22: BDG38.122 (antibody, V domains shown)
VH: B1 VH with T19R, L48V, G49A, Y53D, V88A
VL: B9 VL with V3I, Q16E, R19T, E75S, A94S
B23: BDG38.088 (antibody, V domains shown)
VH: B1 VH with L48V
VL: B1 VL with I3V, S29A, H92Y, Y93S, H96T
B24: BDG38.085 (antibody, V domains shown)
VH: B1 VH with L48V
VL: B9 VL with Q16E, R19T, E79A, A94S, D95N
B25: BDG38.103 (antibody, V domains shown)
VH: B1 VH with T19R, L48V
VL: B1 VL with I3V, E16Q, S29A, I47V, A79E, H92Y, H96S
B26: BDG38.084 (antibody, V domains shown)
VH: B1 VH with T19R, E28A, L48V, G49A, Y53D, V88A
VL: SYVLTQPPSVSVAPGETATITCGGNLIGAYLVHWYQQKPGQAPVLVVYDDVDRPDRIPERFSGSNSGNTATLTISRVEAGDEADYYCQVWDHSTNTMVFGGGTKLTVL
B27: BDG38.114 (antibody, V domains shown)
VH: B1 VH with L48V
VL: B9 VL with V3I, R19T, R76D, D95N
B28: BDG38.113 (antibody, V domains shown)
VH: B1 VH with L48V, V88A
VL: B9 VL with Q16E, R19T, R76D, A94S
B29: BDG38.105 (antibody, V domains shown)
VH: B1 VH with L48V
VL: B1 VL with I3V, S29A, S75E, D76R, H92Y, H96S
B30: BDG38.143 (antibody, V domains shown)
VH: B1 VH with T19R, L48V, Y53D, N57A
VL: B9 VL with V3I, R19T, N25A, E75S, A94S, D95N, S96T
B31: BDG38.136 (antibody, V domains shown)
VH: B1 VH with T19R, G49A, V88A, L104N, T105S
VL: B9 VL with R30K, R56H, I66S, E75S, E79A, A94S, S96T, Y97M
B32: BDG38.124 (antibody, V domains shown)
VH: B1 VH with T19R, L48V, Y53D, V88A
VL: B1 VL with S29A, H92Y, Y93S, N95D, H96T
B33: BDG38.119 (antibody, V domains shown)
VH: B1 VH with T19R, L48V, V88A
VL: B1 VL with S29A, D76R, A79E, H92Y, Y93S, H96T
B34: BDG38.100 (antibody, V domains shown)
VH: B1 VH with T19R, L48V
VL: B9 VL with Q16E, S93Y, A94S, D95N
B35: BDG38.095 (antibody, V domains shown)
VH: B1 VH with L48V, N57A, V88A
VL: B9 VL with R19T, N25A, A29S, I47V, E75S, S93Y, A94S

target: hTSLP-His (human, UniProt Q969D9 29-159, limits assumed); experiment: cell-based or functional assay

Binder	IC50 [pM], STAT5 phosphorylation inhibition in MUTZ5 cells
B1	0.507 pM
B2	830 pM
B3	0.232 pM
B4	0.508 pM
B5	68.8 pM

target: T1, human TSLP (human, UniProt Q969D9 29-159); experiment: SPR
T1 construct: also called hTSLP; rhTSLP

Binder	Kd	koff	kon
B1	0.0621 nM	8.67e-05 s⁻¹	1.4e+06 M⁻¹ s⁻¹
B4	0.151 nM	8.16e-05 s⁻¹	541000 M⁻¹ s⁻¹
B5	0.0275 nM	0.000237 s⁻¹	8.6e+06 M⁻¹ s⁻¹

target: T2, recombinant human IL-13 (human, UniProt P35225 35-146); experiment: SPR
T2 construct: also called rh-IL-13; hIL-13
T2 sequence (P35225 35-146 limits assumed): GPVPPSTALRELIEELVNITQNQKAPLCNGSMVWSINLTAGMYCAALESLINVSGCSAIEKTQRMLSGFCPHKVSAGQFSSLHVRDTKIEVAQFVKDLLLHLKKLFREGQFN

Binder	Kd	koff	kon
B1	0.0604 nM	0.000216 s⁻¹	3.57e+06 M⁻¹ s⁻¹
B4	0.00274 nM	2.02e-05 s⁻¹	7.36e+06 M⁻¹ s⁻¹
B5	0.0239 nM	0.000138 s⁻¹	5.8e+06 M⁻¹ s⁻¹

target: T2, recombinant human IL-13; experiment: cell-based or functional assay

Binder	HEK-IL-13 [nM] (IC50, STAT6 reporter)
B1	0.0832 nM
B6	0.063 nM
B7	0.0659 nM
B8	0.0545 nM
B9	0.0402 nM
B10	0.0646 nM
B11	0.029 nM
B12	0.0601 nM
B13	0.0381 nM
B14	0.0562 nM
B15	0.0824 nM
B16	0.044 nM
B2	0.0174 nM
B17	0.0421 nM
B18	0.075 nM
B19	0.0403 nM
B20	0.0584 nM
B21	0.0464 nM

Binder	HEK-IL-13 [nM] (IC50, STAT6 reporter)
B22	0.079 nM
B23	0.0486 nM
B24	0.0236 nM
B25	0.084 nM
B26	0.0419 nM
B27	0.0989 nM
B28	0.0284 nM
B29	0.134 nM
B3	0.265 nM
B30	0.0438 nM
B31	0.151 nM
B32	0.0523 nM
B33	0.0662 nM
B34	0.0801 nM
B35	0.0822 nM
B4	0.0943 nM
B5	0.0884 nM
